B1: SIN3B isoform 2 (natural protein, human, UniProt O75182-2 1-1130, looked up)
chain: MAHAGGGSGGSGAGGPAGRGLSGARWGRSGSAGHEKLPVHVEDALTYLDQVKIRFGSDPATYNGFLEIMKEFKSQSIDTPGVIRRVSQLFHEHPDLIVGFNAFLPLGYRIDIPKNGKLNIQSPLTSQENSHNHGDGAEDFKQQVPYKEDKPQVPLESDSVEFNNAISYVNKIKTRFLDHPEIYRSFLEILHTYQKEQLNTRGRPFRGMSEEEVFTEVANLFRGQEDLLSEFGQFLPEAKRSLFTGNGPCEMHSVQKNEHDKTPEHSRKRSRPSLLRPVSAPAKKKMKLRGTKDLSIAAVGKYGTLQEFSFFDKVRRVLKSQEVYENFLRCIALFNQELVSGSELLQLVSPFLGKFPELFAQFKSFLGVKELSFAPPMSDRSGDGISREIDYASCKRIGSSYRALPKTYQQPKCSGRTAICKEVLNDTWVSFPSWSEDSTFVSSKKTPYEEQLHRCEDERFELDVVLETNLATIRVLESVQKKLSRMAPEDQEKFRLDDSLGGTSEVIQRRAIYRIYGDKAPEIIESLKKNPVTAVPVVLKRLKAKEEEWREAQQGFNKIWREQYEKAYLKSLDHQAVNFKQNDTKALRSKSLLNEIESVYDEHQEQHSEGRSAPSSEPHLIFVYEDRQILEDAAALISYYVKRQPAIQKEDQGTIHQLLHQFVPSLFFSQQLDLGASEESADEDRDSPQGQTTDPSERKKPAPGPHSSPPEEKGAFGDAPATEQPPLPPPAPHKPLDDVYSLFFANNNWYFFLRLHQTLCSRLLKIYRQAQKQLLEYRTEKEREKLLCEGRREKGSDPAMELRLKQPSEVELEEYYPAFLDMVRSLLEGSIDPTQYEDTLREMFTIHAYVGFTMDKLVQNIARQLHHLVSDDVCLKVVELYLNEKKRGAAGGNLSSRCVRAARETSYQWKAERCMADENCFKVMFLQRKGQVIMTIELLDTEEAQTEDPVEVQHLARYVEQYVGTEGASSSPTEGFLLKPVFLQRNLKKFRRRWQSEQARALRGEARSSWKRLVGVESACDVDCRFKLSTHKMVFIVNSEDYMYRRGTLCRAKQVQPLVLLRHHQHFEEWHSRWLEDNVTVEAASLVQDWLMGEEDEDMVPCKTLCETVHVHGLPVTRYRVQYSRRPASP
notes: SIN3B isoform 2, human, UniProt O75182-2; codon-optimised cDNA; numbers count on: isoform 2 (O75182-2); Tag removed with 3C protease; RbBP7 was co-expressed to keep SIN3B soluble; also called SIN3 scaffold subunit; corepressor SIN3B; source: High Five insect cells, co-infected with baculoviruses of each subunit; co-purified (Strep-Tactin, GSTrap, Superose 6 SEC); not shown: StrepII, C-terminal, …

What was measured:
Settings in all cases: both partners purified
[1] = molecular target: T1, HDAC2 (human, UniProt Q92769 1-488); assay: cryo-EM structure; apo SIN3B complex; SIN3B^FL sample (full-length PHF12, 3.4 Å), SIN3B complex sample (PHF12 1-502, 3.7 Å) and SIN3B^core map (2.8 Å); subunits co-expressed with RbBP7 and co-purified, GraFix (glutaraldehyde) treated
T1 construct: HDAC2, human; codon-optimised cDNA; No tag is named for HDAC2; also called histone deacetylase 2; catalytic HDAC module; source: High Five insect cells, co-infected with baculoviruses of each subunit; co-purified (Strep-Tactin, GSTrap, Superose 6 SEC)
T1 sequence (Q92769 whole entry): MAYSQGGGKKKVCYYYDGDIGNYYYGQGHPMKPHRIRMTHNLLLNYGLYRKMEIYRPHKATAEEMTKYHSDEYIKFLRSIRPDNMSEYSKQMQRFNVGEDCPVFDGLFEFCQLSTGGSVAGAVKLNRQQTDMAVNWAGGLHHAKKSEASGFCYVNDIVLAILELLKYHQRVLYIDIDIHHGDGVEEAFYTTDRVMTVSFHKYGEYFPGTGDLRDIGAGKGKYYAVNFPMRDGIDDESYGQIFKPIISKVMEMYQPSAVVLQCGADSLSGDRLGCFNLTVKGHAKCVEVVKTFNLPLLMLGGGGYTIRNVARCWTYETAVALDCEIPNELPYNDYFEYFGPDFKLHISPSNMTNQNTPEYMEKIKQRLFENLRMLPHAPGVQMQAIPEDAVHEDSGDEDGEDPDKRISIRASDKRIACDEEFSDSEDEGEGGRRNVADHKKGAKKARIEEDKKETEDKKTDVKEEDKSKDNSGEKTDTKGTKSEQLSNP

[2] = molecular target: B1; assay: as above
[3] = molecular target: T2, MORF4L1 (mortality factor 4-like 1) (human, UniProt Q9UBU8 1-362); assay: as above
T2 construct: MORF4L1, human; codon-optimised cDNA; Tag removed with 3C protease; also called MRG and chromo domain-containing protein; source: High Five insect cells, co-infected with baculoviruses of each subunit; co-purified (Strep-Tactin, GSTrap, Superose 6 SEC); not shown: GST, N-terminal, cleaved
T2 sequence (Q9UBU8 whole entry, the tested form may be a part): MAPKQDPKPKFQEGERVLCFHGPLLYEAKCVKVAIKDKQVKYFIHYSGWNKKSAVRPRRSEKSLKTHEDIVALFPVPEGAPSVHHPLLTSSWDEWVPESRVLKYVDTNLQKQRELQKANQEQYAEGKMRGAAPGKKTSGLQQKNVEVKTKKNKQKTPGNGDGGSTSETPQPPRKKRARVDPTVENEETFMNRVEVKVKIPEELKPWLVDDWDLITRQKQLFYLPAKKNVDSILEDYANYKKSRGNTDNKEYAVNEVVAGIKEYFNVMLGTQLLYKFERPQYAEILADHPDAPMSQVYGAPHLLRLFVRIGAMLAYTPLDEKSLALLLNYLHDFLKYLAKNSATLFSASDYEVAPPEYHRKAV

[4] = molecular target: B1; assay: cross-linking; XL-MS: freshly purified SIN3B complex at 1.7 μM with DSSO, on ice for 10 min, quenched with Tris pH 8, trypsin digest, LC-MS

| Binder | stoichiometry N [1] | stoichiometry N [2] | stoichiometry N [3] | binding result [4] |
| --- | --- | --- | --- | --- |
| B1 | 1 | – | – | – |
| PHF12 (full-length) (natural protein, human, UniProt Q96QT6 1-1004, looked up, PHF12, human, full-length; subunit of the SIN3B^FL sample; also called plant homeodomain (PHD) containing protein PHF12; source: High Five insect cells, co-infected with baculoviruses of each subunit; co-purified (Strep-Tactin, GSTrap, Superose 6 SEC)) MWEKMETKTIVYDLDTSGGLMEQIQALLAPPKTDEAEKRSRKPEKEPRRSGRATNHDSCDSCKEGGDLLCCDHCPAAFHLQCCNPPLSEEMLPPGEWMCHRCTVRRKKREQKKELGHVNGLVDKSGKRTTSPSSDTDLLDRSASKTELKAIAHARILERRASRPGTPTSSASTETPTSEQNDVDEDIIDVDEEPVAAEPDYVQPQLRRPFELLIAAAMERNPTQFQLPNELTCTTALPGSSKRRRKEETTGKNVKKTQHELDHNGLVPLPVKVCFTCNRSCRVAPLIQCDYCPLLFHMDCLEPPLTAMPLGRWMCPNHIEHVVLNQKNMTLSNRCQVFDRFQDTVSQHVVKVDFLNRIHKKHPPNRRVLQSVKRRSLKVPDAIKSQYQFPPPLIAPAAIRDGELICNGIPEESQMHLLNSEHLATQAEQQEWLCSVVALQCSILKHLSAKQMPSHWDSEQTEKADIKPVIVTDSSVTTSLQTADKTPTPSHYPLSCPSGISTQNSLSCSPPHQSPALEDIGCSSCAEKSKKTPCGTANGPVNTEVKANGPHLYSSPTDSTDPRRLPGANTPLPGLSHRQGWPRPLTPPAAGGLQNHTVGIIVKTENATGPSSCPQRSLVPVPSLPPSIPSSCASIENTSTLQRKTVQSQIGPPLTDSRPLGSPPNATRVLTPPQAAGDGILATTANQRFSSPAPSSDGKVSPGTLSIGSALTVPSFPANSTAMVDLTNSLRAFMDVNGEIEINMLDEKLIKFLALQRIHQLFPSRVQPSPGSVGTHQLASGGHHIEVQRKEVQARAVFYPLLGLGGAVNMCYRTLYIGTGADMDVCLTNYGHCNYVSGKHACIFYDENTKHYELLNYSEHGTTVDNVLYSCDFSEKTPPTPPSSIVAKVQSVIRRRRHQKQDEEPSEEAAMMSSQAQGPQRRPCNCKASSSSLIGGSGAGWEGTALLHHGSYIKLGCLQFVFSITEFATKQPKGDASLLQDGVLAEKLSLKPHQGPVLRSNSVP | 1 | 1 | 1 | – |
| PHF12^ΔC-terminus (residues 1-502) (domain or fragment, human, UniProt Q96QT6 1-502, looked up, PHF12, human, residues 1-502; lacks the poorly conserved and unstructured C-terminus; subunit of the SIN3B complex sample; also called PHF12^∆C-terminus; PHF12 residues 1-502; source: High Five insect cells, co-infected with baculoviruses of each subunit; co-purified (Strep-Tactin, GSTrap, Superose 6 SEC)) MWEKMETKTIVYDLDTSGGLMEQIQALLAPPKTDEAEKRSRKPEKEPRRSGRATNHDSCDSCKEGGDLLCCDHCPAAFHLQCCNPPLSEEMLPPGEWMCHRCTVRRKKREQKKELGHVNGLVDKSGKRTTSPSSDTDLLDRSASKTELKAIAHARILERRASRPGTPTSSASTETPTSEQNDVDEDIIDVDEEPVAAEPDYVQPQLRRPFELLIAAAMERNPTQFQLPNELTCTTALPGSSKRRRKEETTGKNVKKTQHELDHNGLVPLPVKVCFTCNRSCRVAPLIQCDYCPLLFHMDCLEPPLTAMPLGRWMCPNHIEHVVLNQKNMTLSNRCQVFDRFQDTVSQHVVKVDFLNRIHKKHPPNRRVLQSVKRRSLKVPDAIKSQYQFPPPLIAPAAIRDGELICNGIPEESQMHLLNSEHLATQAEQQEWLCSVVALQCSILKHLSAKQMPSHWDSEQTEKADIKPVIVTDSSVTTSLQTADKTPTPSHYPLSCPSGIST | – | – | – | binds |

From paper PMC10156912, “Mechanism of assembly, activation and lysine selection by the SIN3B histone deacetylase complex” (Nature Communications, 2023)
